Test results reported in US20120316071A1 (published 2012).
Substitutions are numbered along the chain they refer to. In names and notes the source's numbering stands.

B1: Fab VH5-51_IGHD5-18*01>3_IGHJ4*01 G100K/G104T (H:KT) & V3-4_IGLJ1*01 S96M (Fab, V domains shown)
VH: EVQLVQSGAEVKKPGESLKISCKGSGYSFTSYWIGWVRQMPGKGLEWMGIIYPGDSDTRYSPSFQGQVTISADKSISTAYLQWSSLKASDTAMYYCARRKYSYTYDYFDYWGQGTLVTVSS
VL: QTVVTQEPSFSVSPGGTVTLTCGLSSGSVSTSYYPSWYQQTPGQAPRTLIYSTNTRSSGVPDRFSGSILGNKAALTITGAQADDESDYYCVLYMGMGISYVFGTGTKVTVL
notes: Fab format: CH1 with His6 and Flag tags, and lambda CL, from the vectors; also called G100K/G104T & S96M
B2: Fab VH5-51_IGHD5-18*01>3_IGHJ4*01 G100K/G104T (H:KT) & V3-4_IGLJ1*01 (Fab, V domains shown)
VH: B1 VH
VL: B1 VL with M96S
notes: Fab format: CH1 with His6 and Flag tags, and lambda CL, from the vectors; also called KT double mutant; H:KT & L:wt
B3: Fab VH5-51_IGHD5-18*01>3_IGHJ4*01 G100K/G104T (H:KT) & V3-4_IGLJ1*01 S96A (Fab, V domains shown)
VH: B1 VH
VL: B1 VL with M96A
notes: Fab format: CH1 with His6 and Flag tags, and lambda CL, from the vectors; also called G100K/G104T & S96A
B4: Fab VH5-51_IGHD5-18*01>3_IGHJ4*01 G100K/G104T (H:KT) & V3-4_IGLJ1*01 S96E (Fab, V domains shown)
VH: B1 VH
VL: B1 VL with M96E
notes: Fab format: CH1 with His6 and Flag tags, and lambda CL, from the vectors; also called G100K/G104T & S96E
B5: Fab VH5-51_IGHD5-18*01>3_IGHJ4*01 G100K/G104T (H:KT) & V3-4_IGLJ1*01 S96L (Fab, V domains shown)
VH: B1 VH
VL: B1 VL with M96L
notes: Fab format: CH1 with His6 and Flag tags, and lambda CL, from the vectors; also called G100K/G104T & S96L
B6: Fab VH5-51_IGHD5-18*01>3_IGHJ4*01 G100K/G104T (H:KT) & V3-4_IGLJ1*01 S96P (Fab, V domains shown)
VH: B1 VH
VL: B1 VL with M96P
notes: Tested as a Fab made in E. coli; The heavy chain vector (plasmid A) adds CH1 with His6 and Flag tags; the lambda light chain vector (plasmid E) adds CL; also called G100K/G104T & S96P
B7: Fab VH5-51_IGHD5-18*01>3_IGHJ4*01 G100K/G104T (H:KT) & V3-4_IGLJ1*01 S96R (Fab, V domains shown)
VH: B1 VH
VL: B1 VL with M96R
notes: Fab format: CH1 with His6 and Flag tags, and lambda CL, from the vectors; also called G100K/G104T & S96R
B8: Fab VH5-51_IGHD5-18*01>3_IGHJ4*01 G100K/G104T (H:KT) & V3-4_IGLJ1*01 S96V (Fab, V domains shown)
VH: B1 VH
VL: B1 VL with M96V
notes: Fab format: CH1 with His6 and Flag tags, and lambda CL, from the vectors; also called G100K/G104T & S96V
B9: Fab VH1-46_IGHD6-6*01_IGHJ1*01 S102A/S103P/S104F/H111F & L6_IGKJ1*01 A55T (Fab, V domains shown)
VH: QVQLVQSGAEVKKPGASVKVSCKASGYTFTSYYMHWVRQAPGQGLEWMGIINPSGGSTSYAQKFQGRVTMTRDTSTSTVYMELSSLRSEDTAVYYCAREEYAPFSAEYFQFWGQGTLVTVSS
VL: EIVLTQSPATLSLSPGERATLSCRASQSVSSYLAWYQQKPGQAPRLLIYDASNRTTGIPARFSGSGSGTDFTLTISSLEPEDFAVYYCQQRSNWPPWTFGQGTKVEIKR
notes: also called APFF & L6_IGKJ1*01 A55T
B10: Fab VH1-46_IGHD6-6*01_IGHJ1*01 S102A/S103P/S104F/H111F & L6_IGKJ1*01 D50A (Fab, V domains shown)
VH: B9 VH
VL: B9 VL with D50A, T55A
notes: also called APFF & L6_IGKJ1*01 D50A
B11: Fab VH1-46_IGHD6-6*01_IGHJ1*01 S102A/S103P/S104F/H111F & L6_IGKJ1*01 N53A (Fab, V domains shown)
VH: B9 VH
VL: B9 VL with N53A, T55A
notes: also called APFF & L6_IGKJ1*01 N53A
B12: Fab VH1-46_IGHD6-6*01_IGHJ1*01 S102A/S103P/S104F/H111F & L6_IGKJ1*01 R54A (Fab, V domains shown)
VH: B9 VH
VL: B9 VL with R54A, T55A
notes: also called APFF & L6_IGKJ1*01 R54A
B13: Fab VH1-46_IGHD6-6*01_IGHJ1*01 S102A/S103P/S104F/H111F & L6_IGKJ1*01 S52A (Fab, V domains shown)
VH: B9 VH
VL: B9 VL with S52A, T55A
notes: also called APFF & L6_IGKJ1*01 S52A
B14: Fab VH1-46_IGHD6-6*01_IGHJ1*01 S102A/S103P/S104F/H111F & L6_IGKJ1*01 T56A (Fab, V domains shown)
VH: B9 VH
VL: B9 VL with T55A, T56A
notes: also called APFF & L6_IGKJ1*01 T56A

Molecular target: T1, Recombinant Human DLL4 (R&D Systems Cat#1506-D4/CF) (human, UniProt Q9NR61 27-524)
T1 construct: Bought recombinant human DLL4; also called delta-like protein 4; rHuman DLL4
Experiment: ECL (MSD) binding assay, immobilised DLL4, 10 nM Fab;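 also: fab binding read as electrochemiluminescence via a TAG-labelled detection antibody, 1 h incubations at 20 °C, antigen signal compared with each well's blank, ratio of at least 4 scored as binder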

Row | Binder | ECL Signal [10 nM Fab]
1 | B1 | 61700
2 | B2 | 36600
3 | B3 | 1130
4 | B4 | 57000
5 | B5 | 40000
6 | B6 | 54000
7 | B7 | 54300
8 | B8 | 42300

Molecular target: T2, Recombinant Human DLL4 (delta-like protein 4) (human, UniProt Q9NR61 27-524)
T2 construct: also called rHuman DLL4; Delta-like 4
Experiment: ECL (MSD) binding assay, DLL4 immobilised, Fab at 10 nM

Row | Binder | Signal [10 nM Fab]
9 | B9 | 13200
10 | B10 | 4230
11 | B11 | 14200
12 | B12 | 11600
13 | B13 | 19300
14 | B14 | 7260

Molecular target: T1, Recombinant Human DLL4 (R&D Systems …)
Experiment: ELISA on coated DLL4, 100 nM Fab

Row | Binder | ELISA Signal [100 nM Fab]
15 | B1 | 0.02
16 | B2 | 0.01
17 | B3 | 0
18 | B4 | 0.02
19 | B5 | 0.02
20 | B6 | 0.03
21 | B7 | 0.02
22 | B8 | 0.01
